What was measured:
[1] = target: His-tagged transcriptional activation domain of the tumor suppressor protein p53 (UniProt P04637); assay: solution-phase LSPR peak shift of nanoparticles (UV–vis); hTAD ([…]) immobilised by its His-tag on NTA-Ni AgDNP@Au nanobiosensors (~0.025 nM), NCBD (0.27 μM) added; 10 mM Tris, 30 mM NaCl, 0.025 wt % Tween 20, pH 7.5; near equilibrium (25 min)
[2] = target: His-tagged transcriptional activation domain of the tumor suppressor protein p53 (UniProt P04637); assay: solution-phase LSPR peak shift of nanoparticles (UV–vis); hTAD ([…]) immobilised by its His-tag on NTA-Ni AgDNP@Au nanobiosensors (~0.025 nM), NCBD (0.27 μM) added; 10 mM Tris, 10 mM NaCl, 0.025 wt % Tween 20, pH 7.5; nanoparticles aggregated after several minutes
[3] = target: His-tagged transcriptional activation domain of the tumor suppressor protein p53 (UniProt P04637); assay: solution-phase LSPR peak shift of nanoparticles (UV–vis); hTAD ([…]) immobilised by its His-tag on NTA-Ni AgDNP@Au nanobiosensors (~0.025 nM), NCBD (0.27 μM) or BSA ([…]) added; 10 mM Tris, 150 mM NaCl, 0.025 wt % Tween 20, pH 7.5; near equilibrium (25 min)
[4] = target: PEX14 16-80 (Homo sapiens) (UniProt O75381); assay: ITC; settings: cited from earlier work
Sequence of PEX14 16-80 (Homo sapiens) (O75381 16-80): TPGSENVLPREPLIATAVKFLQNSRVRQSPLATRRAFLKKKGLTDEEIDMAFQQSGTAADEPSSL

[5] = target: PEX14 16-80 (Homo sapiens) (UniProt O75381); assay: SPR; settings: cited from earlier work

Sequence of His-tagged transcriptional activation domain of the tumor suppressor protein p53 (P04637 whole entry, the tested form may be a part): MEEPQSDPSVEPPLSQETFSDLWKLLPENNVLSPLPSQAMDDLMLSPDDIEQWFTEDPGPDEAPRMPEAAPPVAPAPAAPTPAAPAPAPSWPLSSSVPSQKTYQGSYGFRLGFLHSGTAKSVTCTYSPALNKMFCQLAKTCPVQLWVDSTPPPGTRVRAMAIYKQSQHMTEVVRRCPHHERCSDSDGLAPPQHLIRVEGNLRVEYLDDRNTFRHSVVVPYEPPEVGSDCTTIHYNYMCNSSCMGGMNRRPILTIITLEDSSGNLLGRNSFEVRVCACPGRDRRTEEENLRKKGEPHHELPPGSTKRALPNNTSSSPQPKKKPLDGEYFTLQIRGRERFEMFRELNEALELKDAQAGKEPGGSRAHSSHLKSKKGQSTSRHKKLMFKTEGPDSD

Substance | second LSPR peak redshift (30 mM NaCl) [1] [nm] | LSPR peak redshift after addition of NCBD (10 mM NaCl) [2] [nm] | second LSPR peak redshift (150 mM NaCl) [3] [nm] | Kd [4] [nM] | Kd [5] [nM]
nuclear receptor coactivator binding domain of the CREB-binding protein (from UniProt Q92793 1-2442) (domain or fragment) | 3.2 | 6.2 | 1 |  | 
PEX5 W4 motif W4 (from UniProt P50542) |  |  |  | 6300 | 
PEX5 1-113 (from UniProt P50542) |  |  |  | 157 | 87

— article PMC11959585
